Results as given in patent publication US7425333B2, “Hypoallergenic allergy vaccines based on the timothy grass pollen allergen Phl p 7” (Biomay Produktions-und Handels-Aktiengesellschaft, priority 2002, dated 2008).

Assays:
[1] = test system: timothy grass pollen allergic patients and a non-atopic individual; assay: Skin prick testing (SPT), immediate type skin reactions; format: in vivo, human; conditions: for mean wheal diameter: 8 μg/ml, timothy grass pollen allergic patients, 20 minutes; for skin reactions in the non-allergic individual: non-allergic individual (#4)
Method: The in vivo allergenic activity of the peptides and the mutant was studied by skin prick testing (SPT) in 3 timothy grass pollen allergic patients and a non-atopic individual. SPTs were performed on the individuals' forearms. Twenty microliter aliquots containing 2 concentrations of complete rPhl p 7 or Phl p 7-derived mutant M4 (2 μg/ml, 8 μg/ml) as well as two concentrations of Phl p 7-derived peptides (1 μg/ml m, 4 μg/ml ) were applied. In addition, standardized skin prick solutions (timothy grass pollen extract and histamine) (Allergopharma, Reinbeck, Germany) were tested. Reactions were recorded 20 minutes after SPT by photography and by transferring the ballpoint pen-surrounded wheal area with a scotch tape to paper. The mean wheal diameter (Dm) was calculated by measuring the maximal longitudinal and transversal diameter and dividing their sum by 2.

[2] = Secondary structure analysis by far-UV CD; format: physicochemical; conditions: for secondary structure (far-UV CD spectra): 20° C., 0.1 cm cell
Method: CD measurements were carried out on a Jasco J-715 spectropolarimeter using a 0.1 cm pathlength cell equilibrated at 20° C. Spectra were recorded with 0.5 nm resolution at a scan speed of 100 nm/min and resulted from averaging 3 scans. The final spectra were baseline-corrected by subtracting the corresponding MilliQ spectra obtained under identical conditions. Results were fitted with the secondary structure estimation program J-700.

[3] = Solubility observation; format: physicochemical
[4] = test system: basophils of a timothy grass pollen allergic individual; assay: Basophil histamine release; format: cell-based, human; conditions: granulocytes of one allergic individual; for concentration of maximum histamine release: 10^−6-10 μg/ml tested
Method: FIG. 3A, B. Induction of histamine release from basophils of a timothy grass pollen allergic patient. Granulocytes of a timothy grass pollen allergic patient were incubated with various concentrations (x-axis) of rPhl p 7 wild type (P7), Phl p 7-derived peptides (P1, P2), Phl p 7-derived mutant (M4) or another antigen (Hom s 4) (FIG. 3A).
Granulocytes were isolated from heparinized blood samples of a timothy grass pollen allergic individual by dextran sedimentation. Cells were incubated with increasing concentrations (10^−6-10 μg/ml) of each peptide or the mutant, and, for control purposes, with rPhl p 7 wild type. Histamine released in the cell-free culture supernatant was measured by radioimmunoassay (Immunotech, Marseille, France). Total histamine was determined after freezing and thawing of the cells.

[5] = test system: serum IgE of Phl p 7-sensitized grass pollen allergic patients; assay: IgE binding, dot blot with sera from ten timothy grass pollen allergic patients; set-up: species or system human
Description: The polypeptides of the invention show reduced binding to IgE antibodies from timothy grass pollen allergic patients compared with wild type Phl p 7 (SEQ ID NO:1). […] Recombinant Phl p 7 consisting substantially of the amino acid sequence as shown in SEQ ID NO:1 can be used to determine the IgE binding activity of wild type Phl p 7. IgE binding of polypeptides may be determined by Western blot analysis or dot blot experiments using serum from a timothy grass pollen allergic patient. Timothy grass pollen allergy is diagnosed according to a case history indicative for timothy grass pollen allergy (i.e., seasonal symptoms of allergy during the flowering period of grasses), positive skin test reaction to timothy grass pollen allergens and/or the detection of specific IgE antibodies to timothy grass pollen allergens in serum. Dot blots can be quantified by measuring the amount of ^125I-labeled anti-human IgE antibodies by gamma counting as described (Niederberger et al. J. Allergy Clin. Immunol. 1998, 102, 579-591).
(§1) Nitrocellulose blotted rPhl p 7 (lane Phl p 7) and rPhl p 7-derived mutants (lanes M1.6, M2A, M4) were probed with serum from a Phl p 7-sensitized grass pollen allergic patient. Bound IgE antibodies were detected with ^125I-labeled anti human IgE antibodies (FIG. 2A). Nitrocellulose dotted Phl p 7 and Phl p 7-derived mutants (M1.6, M2A, M4) as well the Phl p 7-derived peptides were probed with sera from ten Phl p 7-sensitized grass pollen allergic patients. Bound IgE antibodies were detected with ^125I-labeled anti human IgE antibodies (FIG. 2B).
(§2) The IgE binding capacity of purified Phl p 7-derived mutants (M1.6, M2A, M4) was compared with that of Phl p 7 wild type by western blot analysis using serum from a timothy grass pollen allergic patient (FIG. 2A) as well as by dot blot experiments using sera from ten timothy grass pollen allergic patients (FIG. 2B).
The IgE binding capacity of Phl p 7-derived peptides was compared with that of Phl p 7 wild type by dot blot experiments using sera from ten timothy grass pollen allergic patients (FIG. 2B). For both peptides the IgE binding capacity was completely abolished, when tested with serum from ten timothy grass pollen allergic patients.

[6] = test system: recombinant Aln g 4; assay: Rabbit immunization, antiserum reactivity with Aln g 4 by dot blot; format: in vivo; conditions: rabbit antiserum diluted 1:1000
recombinant Aln g 4, sequence (O81701 whole entry): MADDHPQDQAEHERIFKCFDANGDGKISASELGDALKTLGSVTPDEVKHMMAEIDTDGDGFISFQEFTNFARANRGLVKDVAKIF

[7] = test system: serum IgE of a Phl p 7-sensitized grass pollen allergic patient; assay: IgE binding, western blot with serum of a timothy grass pollen allergic patient; set-up: species or system human; conditions: serum from one timothy grass pollen allergic patient
Description: as §1, §2

[8] = test system: rPhl p 7 wild type; assay: Rabbit immunization, IgG reactivity with Phl p 7 by dot blot; format: in vivo; conditions: rabbits, 200 μg/injection, Freund's adjuvant; antiserum 1:500-1:2000

Molecule: NCCc1c[nH]cn1 [histamine, reference compound]
- skin reaction to positive control ([1]; all individuals (3 allergic, 1 non-allergic)): All individuals reacted

Molecule: C-terminal peptide: synthetic peptide comprising the complete C-terminal calcium-binding domain of Phl p 7 (SEQ ID NO:3), one cysteine added
- secondary structure (far-UV CD spectra) [2]: unfolded
- solubility [3]: significant decreased solubility and precipitation

Molecule: N-terminal peptide: synthetic peptide comprising the complete N-terminal calcium-binding domain of Phl p 7 (SEQ ID NO:2), one cysteine added
- secondary structure (far-UV CD spectra) [2]: random coil secondary structure

B1: Phl p 7 wild type: recombinantly produced wild type timothy grass pollen allergen Phl p 7, amino acid sequence SEQ ID NO:1 (protein)
chain: MADDMERIFKRFDTNGDGKISLSELTDALRTLGSTSADEVQRMMAEIDTDGDGFIDFNEFISFCNANPGLMKDVAKVF
modifications: Phleum pratense
- secondary structure (far-UV CD spectra) [2]: significant larger α-helical signal
- concentration of maximum histamine release [4]: 10^−4 μg/ml
- immediate type skin reactions ([1]; skin prick test, 2 μg/ml): induced immediate type skin reactions
- mean wheal diameter ([1]; skin prick test): 9.3 mm
- skin reactions in the non-allergic individual ([1]; skin prick test): no reactions

B2: M1.6: Phl p 7-derived mutant, SEQ ID NO:4: 24E→24A (first EF-hand); 59E→59A (second EF-hand) (protein)
chain: MADDMERIFKRFDTNGDGKISLSALTDALRTLGSTSADEVQRMMAEIDTDGDGFIDFNAFISFCNANPGLMKDVAKVF
- patients whose serum IgE bound (dot blot) [5]: six out of ten

B3: M4: Phl p 7-derived mutant, SEQ ID NO:6: 17D→A, 24E→24A; 52D→52A, 59E→59A (protein)
chain: MADDMERIFKRFDTNGAGKISLSALTDALRTLGSTSADEVQRMMAEIDTDGAGFIDFNAFISFCNANPGLMKDVAKVF
- recognition of cross-reactive allergen Aln g 4 by rabbit antiserum raised against the immunogen [6]: recognized the Phl p 7-cross-reactive allergen, Aln g 4
- secondary structure (far-UV CD spectra) [2]: increasing portion of random-coil secondary structure
- decrease of CD signal in contrast to normalized spectrum of rPhl p 7 ([2]; second analysis comparing Phl p 7 and point mutant-4): approximately 20%
- patients whose serum IgE bound (dot blot) [5]: four out of ten
- IgE binding capacity (dot blot) ([5]; compared with Phl p 7 wild type): strongest reduction of IgE binding capacity
- IgE binding capacity compared to Phl p 7 (western blot) [7]: strongest reduction
- concentration of maximum histamine release [4]: 10^−3 μg/ml
- induction of histamine release ([4]; increasing concentrations): dose-dependent release of histamine
- mean wheal diameter ([1]; skin prick test): 7 mm
- immediate skin reactions compared with Phl p 7 wild type ([1]; skin prick test, allergic patients): moderately weaker
- skin reactions in the non-allergic individual ([1]; skin prick test): no reactions
- induction of IgG anti-Phl p 7 antibody response [8]: induced IgG anti-Phl p 7 antibody responses

B4: M2A: Phl p 7-derived mutant, SEQ ID NO:5: 17D→A, 24E→24A; 59E→59A (protein)
chain: MADDMERIFKRFDTNGAGKISLSALTDALRTLGSTSADEVQRMMAEIDTDGDGFIDFNAFISFCNANPGLMKDVAKVF
- patients whose serum IgE bound (dot blot) [5]: five out of ten
